For series [1], the target named is MurE-MurF bifunctional fusion protein from Bordetella pertussis, His-tagged (Bordetella pertussis (strain ATCC 9797/DSM No 5571)). As to the kind of experiment: SEC-MALS; larger SEC form (dimer pool) of MurE-MurF; 25 mM HEPES pH 7.5, 300 mM NaCl, 10 mM MgCl2, 5% glycerol; room temperature. In general terms: Size exclusion chromatography separates by hydrodynamic size, large species first.

The target is the same in series [2].
The target is the same in series [3]. Briefly: AUC; sedimentation velocity, dimer pool of MurE-MurF at 40, 10 and 2.5 μM, 42,000 rpm, 20 °C.
Series [4] concerns the target FITC-labelled MurE-MurF fusion protein from Bordetella pertussis (Bordetella pertussis (strain ATCC 9797/DSM No 5571)). As to the kind of experiment: MST; FITC-labelled MurE-MurF at a fixed concentration, oligomeric MurG (purified without detergent) titrated from 1 nM to 37 μM; 25 mM HEPES pH 7.5, 150 mM NaCl, 10 mM MgCl2, 5% glycerol, no detergent; apparent KD, no clear plateau.

Series [5] concerns the molecule itself. As to the kind of experiment: AUC; sedimentation velocity, MurG 2 mg/ml in buffer with DM (1.2 x CMC), 42,000 rpm, 20 °C.
In series [6] the target is FITC-labelled MurE-MurF fusion protein from Bordetella pertussis (Bordetella pertussis (strain ATCC 9797/DSM No 5571)). Briefly: MST; FITC-labelled MurE-MurF at a fixed concentration, MurG purified in detergent titrated; 25 mM HEPES pH 7.5, 150 mM NaCl, 10 mM MgCl2, 5% glycerol, 0.17% w/v DM; 22 °C; triplicate.

The results in this text go back to paper PMC6420597, “The MurG glycosyltransferase provides an oligomeric scaffold for the cytoplasmic steps of peptidoglycan biosynthesis in the human pathogen Bordetella pertussis” (Scientific Reports, 2019).

As to “MurE-MurF bifunctional fusion protein from Bordetella pertussis, His-tagged (enzyme)”, the stoichiometry N in series [1] and in series [3] was 2 in each case. The molecule further displayed a specific activity of the MurF-catalysed reaction (D-Ala-D-Ala-adding) of the dimeric form of MurE-MurF; the monomeric form gave 14.1 µmol/min/mg in series [2] of 7.5 µmol/min/mg.

B1: MurG glycosyltransferase from Bordetella pertussis, N-terminal Strep-tagged (enzyme, UniProt Q7VUQ3 1-357, looked up)
chain: MSAPTILIMAGGTGGHIMPGLAVAEVLRERGWRVLWLGNPDKMEGRLVPPRGIELVPLRFQGVRGRGAAALLKLPFLLARACAQAWRRLADIRPDVVLGMGGYVAFPGGVMAALRRTPLVVHEQNAVAGTANRWLARLARRVLSGFPGVLPRGEALGNPVRADLCALPEPAERYAGRSGALRVLVVGGSLGAHALNTTVPQALALLPEQARPQVVHQAGEQHLPALQQAYAQAGVQADCRAFIDDMADAMAQADLLICRAGAMTVSEVAAAGVAALFVPFPHAIDDHQTANARFLSDAQAAWLQPQASLTPQWLAQWLGQRTRQELQAVAGRARTHALPRAAAHIADVCEQAARRAS
notes: MurG, Bordetella pertussis strain ATCC 9797/DSM No 5571; printed as a 357-residue protein; the murG gene was cloned into a modified pET30b; The Strep-tag is TEV-cleavable, but no cleavage is described; It is not clear whether the 357 residues include the tag; The oligomeric state depends on detergent: dimer in DDM/DM, tetramers and higher without; The discussion gives a mass of 50 kDa; also …
With B1, the figures for the Kd in series [4] and in series [6] were 970 nM and 570 nM, respectively. Further, in series [5], the “stoichiometry N” value is 2.

What is called stoichiometry N is the number of molecules, sites or subunits per partner or assembly.
